Results from publication PMC5913127.
pEC50, pKd: −log10 of the molar value.

Legend:
[1] = target: dimeric Aβ_(1-15) multi-antigen peptide (MAP); assay: not stated; binding of antibody to branched multi-antigen peptides of Aβ1-15, EC50 (Fig. S5)
[2] = target: ^chaducanumab (murine chimeric IgG2a/kappa version of aducanumab) (human | murine); assay: ELISA; antibody (5 μg/mL) captured on coated goat anti-mouse IgG Fcγ antibody; serially diluted monomeric biotin-conjugated Aβ1-40 in PBS with 1% BSA; HRP-streptavidin detection
Aβ_(1-16) peptide = Aβ_(1-16) peptide (UniProt P05067); assay: MST
Aβ_(1-28) peptide = assay: SPR
Sequence of Aβ_(1-28) peptide (P05067 672-699): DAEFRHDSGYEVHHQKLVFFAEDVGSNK

^chaducanumab (murine chimeric IgG2a/kappa version of aducanumab) (antibody)
pEC50 [1]: < 6.00

biotin-conjugated Aβ_(1-40) (Aβ_(1-40)-Lys-Biotin), monomeric (peptide)
pEC50 [2]: < 6.00

chgantenerumab
pKd (Aβ_(1-16) peptide): 7.02 | pKd (Aβ_(1-28) peptide): 5.89
